# A protein production outcome set (Wang et al. 2014)
# Assay: label from the status in PepcDB records
row,Sequence,protein production
1,MIGEQPGDIFRRGEILNHTYEIEGVLGRGGTGEIYRARNLISGRIVAVKALNRRFSGNDDYIGLMRREEQLRDVIDDAVVRYTECSRSDGGHVFLVMDHIEGPSLAQAMEAGRIEARDLLIVAHRVAEGLRAAHRHGIVHRDLSPDNIILRGGAPERATIIDFGIAKDLSAGAQTIVGNDFAGKYEYAAPEQIDGRAEPRSDLYALGATLLAAFRGEAPFAGATPGEIVRRKGRPLDTEGVPEPLRGLIDRLAAPEAERRPASAAAVVEELDRLLRPQAEPDRRRRVWPALAALLLLAVLAVGGWIALRPPLAEPYRLTASAADLAGEAPDRAAAARIAAAYARAAGHESHGLRIARGAPEGWADAAAEVLALAATLDDWRLALNGAEAALSGRAPDARSAAMVETRFRDWASRRGFEPRLQIEVVPPPLDPQAVSALLQRHADCGPLSEGGTEGVITGAVATAETAAALERALADLRGDRPLHLAITVLNPAICAVRQALPDRPAQGLSIWLGEAATGAPNLAGIYGPGDYPLVEIRLPAGMSGLALWVGLVDVTGSVLNLLPNVYSDESRIDRLGTVANGVRTIRVMPLEFQVAGGTQLFALQVEARDFGRSELVAVVSRGDLFALRRPKDESVASFTEALSALRRDDPDRLVAVTRRLLESRPSR,failed
2,MIGFIGSVFSPWYRWSGRKEPQNHCCLNVATYGPGGRFTMTDRGRAALRQSPDTLTVGPSRMHWTGTQLIVEVNEISSPPLVSPVKGRIVLTPTGITDVEVTLKDDGSHIWRPFAPTARIEVDLTQGHRWHGHGYFDANFGTAALEADFRFWTWGRYPVADGAACFYDATRRDGSRLELGLHVAADGRARLIQPPPEARFARSRWLVERHTPADPGTRPRQVMSMLDAPFYSRAMVETTVFGQKTVGVHEALDLRRFRSPLLMPMLAVRVPRRP,failed
3,MIGKEVLNYTIVSLIGKGGMGSVYLAEHKYIKQQKVAIKVINSDMVNDFTRQRLKEEAEHLASLNHQNIVRFHDYHIDELGSIYLIMEYADGISLDKYIQTVSGLIVEDKICPLFEPILDAVEYAHEHNIIHRDIKPANIIITKEGIPKILDFGIATIINRESVEKDDMVMGTPSYMSPEQVRGDHLDSRSDIYSLGVMLHQMLTGNAPYDTTTLTEYDINKKVVEEPLPRMRTYYKYVSDKVQKIVDKATAKEPGERYQTCDDFKKALHRVIYPPKIPKWVWTSVAAIVLLMIGGGVYFWDYNRTKVYYYKDYVEQWGVPQGIGELSSREMSHVNRLYRFEYKKHKLQRMSHVNSKENIIEDGESERNERPLDMLLYYTDKGNISRAKVLDRSGKVLYVKSYNDKLNTVIFQYDDEYGTEKTLGAQTIGYVRALEDNGVEKGKISRWLLEYDENGYVSTIRYAGFQNVLVGDAHNIYGRKYVRDEKGRVLSEHYLSFDGTPKATKWGLGMKKFYYDENDNWVKAEYLTVDGKPAYDDADGIGVYVMEYDKYGNVVYALHQDADGKLMLPKKNGVAGIKYIYDQHGFPIEASYLDIDRKACFIPNDGFSKVVRKFDDNGYIINQTFYDVDGNQCLSNDGNSSAKYINDNRGNVQEMWFYGLDGKLNEINEGYAGVKLNYDSIGNIIEYVTYGIDQKPCLKSDGTAGYKAEYNDMNLITKLVNIGVDLSPCKDNNGIVIAARDYDKRGNQIKVSFYDAGGKTLVLSNENIAGWNSVYDDNGNETERSFFDDKNNLTVCAGSCAKWISKFDEQGNETNLRYYNLSGKLMMVNGSAGANYKRDKRGNILEKIEIGTDEQLASGKLIARYKYDKFDNQIEFSVYDRNNKPALNSLDYHKYVCIYNSRNQRIEIEYYGKDGELTSYNNDKYAIQKDEYDERGYIVRTSYYGKDKQLVVSNEGWASSTREYDVLGNVLKQSFFGIDGKPTDPKVMVPEGLCRYDRWGNRIYLAAGDGKGHLIINPKTGWSIQKSEYNSRGKLLSEAYFDENEKPLISRMDGYHKAVISYTSSGNEKEKCYYDIMNKPMLCPDGYFKEVYEYNDNQQAISLSYLGVNGKSIDCKDGYSKIELTYNKDGEMESRKYTNASGRILLTQKWNGKEWVNSSPEPISRNWQQDVRKFNAELPIDFGENTKHLVASSFLVTGSNSCELSFKTPKSKYEMTEAEVNEYFASIKLVVTKIKSESLPSSVVITGILFDSKGRQLRSIRK,failed
4,MIGLMIRVAGQLGRYARLLPATAGMVLVLQVAAQADVLTINGGAKFTNYPMVTLGINAALHGGTVQAMRFSIDDSTWTDWEPVAASKRFKLTEPLSLSFYDVFLQFQQDGVAVPDPPYPAAIVYDDLIDTGFFGGQGVALLGGTGSDRGKGVVVQPDGKLLVVGTVEQAAGNTDIVLWRLTAQGEPDTGFGVQGSVVIDAGTADRAAGVALQGDGKILVLGTVGSATTAWEVRRYDSAGVLDTSFGTGGKYQEGASGANEAGNLLVQPDGRIVIIGSRDVAGAKKIQVIRLTATGVLDSAFNGNTGYYRPNLPGNSFGNGVALQADGKILLVGTYANPSGETDLFVQRLKTDGTLDNFNDGLNNFFMAGDAGNDEGLGIAVQPDGKIVVVGAYQWGAGDTDIWVLRLNENGTRDNDFNAPVGDYKDGDVYNDRAEALVIQPDGKIVVVGSFGYATDTDILVFRLNADGTTDNTIYNFYGFYTINSGDDEGQGVALQPDGNIVLVSTFTREEGDTDIHVHRIFGRKETLSVSTTGGGSVADDLGAFTWVDLSGEGDYLQGDSVALTAAPATGYVFTGWGGDCAGTSPVCTVTMDGAKNVTASFSLDRPAAPTGLSGVPGNGTAGISWTASQESGITGYKVYYGITSGNYATPDPVGTTPAHVISGLMNGVTYYIAVSVLKNGVEGPKSAEITVTPGINLSVTVVGTGGGTVSSAPGGISCLDGSGCSAVFNAAPVVLSATPSAGSIFAGWSGACSGTDGCTVTQYGPVAVTATFTKMPPVKLTAGTTSYYSTIAEAYAACIGGTSCTIETQATELAGNVTLANAIAVLFKGGYDATFSSSPGLTTLQGVVTVGRGSLTAQNVVIR,failed
5,MIGLSKSRGALSMENQKMPEYETIRAAVAGEKWAVEKVVDCYKDEIDRLSTVAVRQPDGSTKQEINEDMRQSITKKLIEALPQFPLEEMEKGNVR,failed
6,MIGVVATLKVQPAKAAEFEKVFLDLAAKVKANEPGCLVYQLTRSKTEEGVYKVLELYASMDALKHHGGTDYFKAAGAAMGPTMAGAPVIEYLDAVE,not failed
7,MIGWTLGQYFFIRYLKMTCYFLGGIFVLALLIDFTENSGRLSSLPRYTAKDAFLISVLRIPFIMQQLIPFIALFSAMAMLISLNRKSELVVTRSIGISAWQFLMPACFGAFLFGLFSILLVNPLAAWGFSQAERMMTEWRSKNNNVLTSLHNTRILWLTQRTHSGRTTIGAKSITDQGLSLIDATFVQYNDNATIKNWINSRKATLINGAWLLTDGTIYKIGHPPEKFSELQIQTTLKPEFLTERLVNPATIPFYQLPTKIMIARSFGYSANNFDMYLQSLIALPALLIAMTLIAAVVSLNFTRFGQSKILILGGVIAGFSLYVISILVQAFGNAGYIPPIIAAWTPVFIALFLGISFLLHKEDG,failed
8,MIIDINRLDRAFDLIKEGVSKGVFPGAVAAVGTRERVIRLESFGNRCLYPEKLSMNKDTLFDLASLTKVVATNTLFMIFLEKGLISVYDNVSYYLEKFKGKNKDDVTIFNLLTHTAGFVPCKPLYKLCKGYEDSIDYICRCGLSYKPGTKCVYSDFSYILLAYILEKIGGDTLDILCDRYIFKPLYMENTTFKPKGNNIAATEIDKKTKKPLIGVCHDENGRFFGGISGHAGLFSDIYDLCKFSNMLVNEGKGIISYASFKAMTTNHTLGLEDNRGYGWCIKGDKNSFMGDIAFPETFGHNGFTGTSLWVDIKNNIYAILLTNRVHPTRDNLRIIRFRRVFSNAVLASLTRLEHHHHHH,failed
9,MIIKFTVVICTYNGAKRLPKVLDELQNQIDTEAISWEILVVDNNSTDSTKQVVQQYQNTCFKPGQLRYSFEPEQGLAIARQHAVTAARGELIGFLDDDNIPSLTWVASAYLFAQNHPCAGAYGSRIQGEFEVPPPDDFKRIAALLALTERGSKKLLYEPKKKVLPPGAGLVVRKQAWLENVPKRCFLQGRVCEPYLPGEDLEALLHIQQAGWDIWYNPEMQITHQIPHWRLKKDYLVDLCRGIGLSRYHTRMLSVKPWQAPVLFWLYIFNDVRKLILHLYKYRGRVKSDLIAACELELFIGSLLSPPYIWKAYIKKYFRKQRPVSFSSSVRCADYTQN,failed
10,MIIKGRAHKFGDDVDTDAIIPGPYLRTTDPYELASHCMAGIDENFPKKVKEGDVIVAGENFGCGSSREQAVIAIKYCGIKAVIAKSFARIFYRNAINVGLIPIIANTDEIKDGDIVEIDLDKEEIVITNKNKTIKCETPKGLEREILAAGGLVNYLKKRKLIQSKKGVKT,not failed
11,MIILKGNKIDYLFLLFGLLGLSTMIYSYLSFSLDVISRNSCTINSVISCSSVENSIYSTFLGIKLYYYGMAYFSAIIVLSLLVVKGTVKNIIGYVISLLSIIASIISVYLIYTEIFLLGHMCIVCTLAHVSIFSVLILSVIKFKV,failed
12,MIINITILEDNESDFITLSDSIKKWAANTGILINIIWLNSYKKFIKSLPTLKCDLFFSDIELNCNNSFTGIDACKQLRESGYTGIIIFLTAFKEYVFDGYDVQAFNYLLKPINYGTINNCLDKFIHLFSREFYYYHKGNDIISIPYNDIMYIEKNGHDVILHTTSNVFVERISLNEISKRLPVFFIRAHKSYIVNINKVLSLRINELFLPNNVTIPVSRSYLTNIKKKLLEIAR,failed
13,MIIPTVPTTDELLDKGFRRARKAASLKRSSKIPGQKKAKVIESTRVQTACQVIRDRLKMIIQRIPDIESLPEFYQDYIDVTVGVDELKKSLGALNWAVGILNQLESDYMARIKRSKPSDASHLRREAFGRISSVIKRIEGDLDFLDFAKNKLRNMPTVDLDAFTVVIAGFPNVGKSTLLRTLTGAEPEVADYPFTTKGIQIGHLERKWKRIQVIDTPGLLDRPVEDMNNIELQAMVALENIADVIMFIFDASETCGYTLESQYSLYLGIRSVFDIPVVTVFNKMDLAENVKYLEEYINMVEDPLKVSAFEGRGVSKIIKKLEGLYEKETREAHDNV,failed
14,MIIPVRRFTPNAYIMRILVSIIVFLCIGWIGRVTELEENFITQNKPVEVGTFVTFTINIPDGSEIPYVAWDFGDGSGLGRYRKSLSVSYTFTEPGVYQVYARIQGEDFPLTVIQTVYKPTQKPAPAHSSTIVIDTVHQKVWAVNTDNNSVAYIDALNNTLLSEIPVGKQPRTVALDKDGNAWVANEEDASISVIAAATGQVLQTIILPYASRPYGICFDPQKDFCYVTLQGTGELVKIEAIGREIVESVHVGRSPRGIAVTSDGSQMLVTQFISPEENGLVRLIDTKTMHVQQEIVLAFDVTPDFEDRGRGVPNFLSSITITPDGTEAWVPSKKDNTARGMFRDGLALEFDNTVRTIVSRIDLSTMTENSQMRTDINDADMACAVEFSPYGNIAFVALQGVNKITMIDVASNSRLGLLDSTGLAPQGLVINADGSRLFVHNFLTRTVKVFNTEDIVLSNNFTPVVAATISTIITEKLAPQVLEGKQIFYNAADERMTFAGYISCASCHLDGASDERVWDFTDRGEGFRNTHSLLGRGGMDMGNVHWTSNFDEIQDFENDMRNGFKGKGFLPDAVFALVSDPLGNPKAGLSRELDALAAYVTSLNKVHASPYRNNDGSLTADGIEGEILFQELGCGSCHAGQDFTDRKTGVLHDVGTEQPSSGERRTLALTGFGTPTLKGIWETAPYLHDGSALTLKDVLVTRNAEKKHGDLSNLTETELDKLVAYLLQIDDNQDAVITALLFPIKREFVAMRIFPNPASESANVQLTNIVKSSGTIRIYNVIGHLLMTVLVEGMNEINLDVSQLNSGVYVVEYSDDTSKYSQKMVIQ,failed
15,MIIRIVQNIQRINKEGNAPLYISFYLGKEKVVIPCKLSVPTTKFDSKTGMLRGTNKEAKDINLIIERLKAKVNDILVKHRLKNLTLNKEAFMREYNNPSDFKSFHDFVASYMKTYSRRLEIGTFRHHKSCMRKFKEYCEGLQFHELTEDFLRDYLIYMKKTLCNADSTAQRNLSTIKIYVSAAIKKGYMENDPFKDFGVKRIKSNIDYLTEEELIKFISLYYDRRLPERLERTLGFFLFMCFTSLHISDARHVCLEQINNGILTYYRIKNRNCKPEAIKIPLSIPAFKIIEELQGKRKEGHLFTSLQCDQVVNRQIKEIASILEIKKKVSAKTGRHTFATIFLKKTKDVATLQKLLGHSNLKETMIYAHVLDESKQEGMQCFNSFAI,failed
